Experimental data as given in patent US20200017862.
Residue numbers refer to the chain shown, from its start. In names and notes the source's numbering stands.

B1: GST-APE2 (recombinant GST-tagged Xenopus APE2) (protein)
chain: MKIVSWNINGIRATRVGLKETLDSLDADIICLQETKVTRDLLDEPSAIVEGYNSYFSFSRVRSGYSGVATFCKSSTTPQAAEEGLSGVFCNRTGSVGCYGNTEQFLEEELQSLDQEGRAVLTQHRILNCEDKEETLTVINVYCPRADPEKPERKTYKLRFYHLLQTRAEAILQNGGHVIILGDVNTSHRPLDHCDPTDLETFEENPGRQWLNQFLGDPIPSQKGDSETVMPPSAGSGLFYDSFRYFHPTQKNAFTCWCSASGARQTNYGTRIDYILGNRELVESEFLDSVIMPEVEGSDHCPVKAFMKCQPIAANKCPPLCTKYLPEFAGRQQKLLQFLVKKENTLGNTTEESSELTGTPSFTEGADISTVRKRPSDKLNSTSKKKSKIVTKNGQGNLLSFFKPERQKLTMATECNPIEVPICKKEKTVQKDLQPATPAVKYNKPQTAFWKSLLKGPPPPPNCKGHSEPCVLRTVKKAGPNCGRQFYVCARPEGHSSNPQARCNFFLWLTKKAGCED
B2: WT Myc-APE2 (recombinant Myc-tagged Xenopus APE2) (protein)
chain: B1 chain
B3: G483A-R484A Myc-APE2 (protein)
chain: B1 chain with G483A, R484A
B4: C470A Myc-APE2 (protein)
chain: B1 chain with C470A

What was measured:
[1] = target: LI PCNA (His-tagged mutant Xenopus PCNA), P18248
LI PCNA (His-tagged mutant Xenopus PCNA), P18248, sequence (P18248 other isoform, or with tags, fused parts or gaps mutant): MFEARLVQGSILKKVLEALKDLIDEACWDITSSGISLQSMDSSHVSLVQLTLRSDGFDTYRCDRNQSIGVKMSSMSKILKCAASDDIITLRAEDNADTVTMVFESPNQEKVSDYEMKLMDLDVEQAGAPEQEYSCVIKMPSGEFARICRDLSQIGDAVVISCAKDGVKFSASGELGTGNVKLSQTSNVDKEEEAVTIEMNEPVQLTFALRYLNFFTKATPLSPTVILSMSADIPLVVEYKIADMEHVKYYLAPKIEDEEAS

[2] = target: LIPK PCNA (L126A-I128A-P253A-K254A PCNA, His-tagged), P18248
LIPK PCNA (L126A-I128A-P253A-K254A PCNA, His-tagged), P18248, sequence (P18248 whole entry L126A/I128A/P253A/K254A): as the sequence (P18248 other isoform, or with tags, fused parts or gaps mutant) above, with P253A, K254A counted along it

[3] = target: PK PCNA (P253A-K254A PCNA, His-tagged), P18248
PK PCNA (P253A-K254A PCNA, His-tagged), P18248, sequence (P18248 whole entry P253A/K254A): as the sequence (P18248 other isoform, or with tags, fused parts or gaps mutant) above, with A126L, A128I, P253A, K254A counted along it

[4] = target: WT His-tagged PCNA (recombinant Xenopus PCNA), P18248
WT His-tagged PCNA (recombinant Xenopus PCNA), P18248, sequence (P18248 whole entry): as the sequence (P18248 other isoform, or with tags, fused parts or gaps mutant) above, with A126L, A128I counted along it

[5] = target: PCNA, endogenous, in Xenopus egg extract (HSS), P18248
PCNA, endogenous, in Xenopus egg extract (HSS), P18248, sequence (P18248 whole entry): as the sequence (P18248 other isoform, or with tags, fused parts or gaps mutant) above, with A126L, A128I counted along it

| Protein | exonuclease activity on FAM-labeled gapped dsDNA (Type I resected products), purified proteins in vitro [1] | exonuclease activity on FAM-labeled gapped dsDNA (Type I resected products), purified proteins in vitro [2] | exonuclease activity on FAM-labeled gapped dsDNA (Type I resected products), purified proteins in vitro [3] | exonuclease activity on FAM-labeled gapped dsDNA (Type I resected products), purified proteins in vitro [4] | 3'-5' SSB end resection of FAM-SSB in APE2-depleted HSS [5] | SSB-induced Chk1 phosphorylation in APE2-depleted HSS [5] | hydrogen peroxide-induced Chk1 phosphorylation in APE2-depleted LSS [5] | recruitment of RPA32, ATR, ATRIP, TopBP1, and Rad9 to SSB plasmid in APE2-depleted HSS [5] |
| --- | --- | --- | --- | --- | --- | --- | --- | --- |
| B1 | The gapped dsDNA was catalyzed into Type I resected products by recombinant APE2 with the presence of WT PCNA, but not LIPK PCNA, LI PCNA, or PK PCNA | The gapped dsDNA was catalyzed into Type I resected products by recombinant APE2 with the presence of WT PCNA, but not LIPK PCNA, LI PCNA, or PK PCNA | The gapped dsDNA was catalyzed into Type I resected products by recombinant APE2 with the presence of WT PCNA, but not LIPK PCNA, LI PCNA, or PK PCNA | The gapped dsDNA was catalyzed into Type I resected products by recombinant APE2 with the presence of WT PCNA, but not LIPK PCNA, LI PCNA, or PK PCNA | – | – | – | – |
| B2 | – | – | – | – | VVT APE2 but not C470A APE2 rescued the deficiency of SSB end resection of FAM-SSB in APE2-depleted HSS | WT, but not C470A, APE2 was found to rescue the SSB-induced Chk1 phosphorylation in APE2-depleted HSS | VVT APE2, but not G483A-R484A APE2, rescued the hydrogen peroxide-induced Chk1 phosphorylation in APE2-depleted LSS system | WT APE2, but not C470A APE2, rescued the recruitment of RPA32, ATR, ATRIP, TopBP1, and Rad9 to SSB in APE2-depleted HSS |
| B3 | – | – | – | – | – | G483A-R484A APE2, which is deficient in interaction with ssDNA and PCNA CTM motif (FIGS. 12D and 12E), also failed to rescue the SSB-induced Chk1 phosphorylation in APE2-depleted HSS | VVT APE2, but not G483A-R484A APE2, rescued the hydrogen peroxide-induced Chk1 phosphorylation in APE2-depleted LSS system | – |
| B4 | – | – | – | – | VVT APE2 but not C470A APE2 rescued the deficiency of SSB end resection of FAM-SSB in APE2-depleted HSS | WT, but not C470A, APE2 was found to rescue the SSB-induced Chk1 phosphorylation in APE2-depleted HSS | – | WT APE2, but not C470A APE2, rescued the recruitment of RPA32, ATR, ATRIP, TopBP1, and Rad9 to SSB in APE2-depleted HSS |
